Laboratory results taken from article PMC8529701, “Biofoundry-assisted expression and characterization of plant proteins”.

T1: AtTGA2 (6xHis-HRV3C-AtTGA2-HiBiT, plasmid pEPQDKN0742) (UniProt P43273 1-330)
T1 sequence: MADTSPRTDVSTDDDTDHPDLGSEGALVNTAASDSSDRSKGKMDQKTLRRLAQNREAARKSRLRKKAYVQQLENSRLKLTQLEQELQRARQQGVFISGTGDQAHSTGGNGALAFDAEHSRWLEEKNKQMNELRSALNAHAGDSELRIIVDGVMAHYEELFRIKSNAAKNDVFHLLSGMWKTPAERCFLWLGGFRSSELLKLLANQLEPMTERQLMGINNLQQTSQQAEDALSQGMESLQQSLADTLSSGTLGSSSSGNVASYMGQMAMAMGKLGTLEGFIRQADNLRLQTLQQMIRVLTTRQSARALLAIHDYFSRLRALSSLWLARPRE

B1: Random control probe (dsDNA)
DNA 1: GACCCCTATTGCAGCTATTTCACACATACCAACGCTTAGCGCAATGGCCATCACGCAGTA
DNA 2: TACTGCGTGATGGCCATTGCGCTAAGCGTTGGTATGTGTGAAATAGCTGCAATAGGGGTC
B2: TGA TFBS probe (dsDNA)
DNA 1: GACCCCTATTGCAGCTATTTCACCTGACGTAAGGGATGACGCACAGGCCATCACGCAGTA
DNA 2: TACTGCGTGATGGCCTGTGCGTCATCCCTTACGTCAGGTGAAATAGCTGCAATAGGGGTC

Target: T1, AtTGA2 (6xHis-HRV3C-AtTGA2-HiBiT, …)
Test: EMSA; 500 ng poly(dI-dC); 20 mM Tris-HCl pH 8.0, 50 mM KCl, 2 mM DTT, 1 mM EDTA, 500 ng poly(dI-dC), 5% glycerol, 0.05% IGEPAL CA630, 0.1 mg/ml BSA; about 500 pmol protein, 5.5 pmol probe; room temperature 1 h; 6% TBE gel
Conditions: protein: ivt; tags: N-terminal NET-6xHis-HRV3C (as described for plasmid); C-terminal HiBiT; label: Alexa-488 at 5' end of the complementary strand (Klenow extension of labelled primer S3); blunt

Row | Binder | binding result
1 | B1 | no binding
2 | B2 | binds
